The target of one experiment is T1, IRAK4 (Homo sapiens, UniProt Q9NWZ3).
T1 sequence (Q9NWZ3 1-460): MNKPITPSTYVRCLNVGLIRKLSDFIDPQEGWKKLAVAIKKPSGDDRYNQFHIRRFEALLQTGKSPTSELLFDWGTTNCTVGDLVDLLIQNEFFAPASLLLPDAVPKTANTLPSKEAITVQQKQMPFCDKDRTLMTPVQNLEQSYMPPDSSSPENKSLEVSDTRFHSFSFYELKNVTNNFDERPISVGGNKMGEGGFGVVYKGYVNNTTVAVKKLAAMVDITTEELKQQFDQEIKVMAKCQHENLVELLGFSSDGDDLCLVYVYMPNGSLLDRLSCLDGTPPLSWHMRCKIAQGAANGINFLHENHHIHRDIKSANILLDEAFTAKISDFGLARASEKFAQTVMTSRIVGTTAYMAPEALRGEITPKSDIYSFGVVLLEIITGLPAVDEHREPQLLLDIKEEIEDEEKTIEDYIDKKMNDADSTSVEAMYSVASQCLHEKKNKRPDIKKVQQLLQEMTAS
Kind of experiment: mRNA display affinity selection against IRAK4, NGS abundance. Format: binding. The arrangement: acids 1-460; NP_057207.2) was purchased from Carna Biosciences; purchased Carna Biosciences (Kobe, Japan). As to conditions: Top100 selection hits, NGS.

The next experiment has as its target T2, TLR10 (Homo sapiens, UniProt Q9BXR5).
T2 sequence (Q9BXR5 20-576): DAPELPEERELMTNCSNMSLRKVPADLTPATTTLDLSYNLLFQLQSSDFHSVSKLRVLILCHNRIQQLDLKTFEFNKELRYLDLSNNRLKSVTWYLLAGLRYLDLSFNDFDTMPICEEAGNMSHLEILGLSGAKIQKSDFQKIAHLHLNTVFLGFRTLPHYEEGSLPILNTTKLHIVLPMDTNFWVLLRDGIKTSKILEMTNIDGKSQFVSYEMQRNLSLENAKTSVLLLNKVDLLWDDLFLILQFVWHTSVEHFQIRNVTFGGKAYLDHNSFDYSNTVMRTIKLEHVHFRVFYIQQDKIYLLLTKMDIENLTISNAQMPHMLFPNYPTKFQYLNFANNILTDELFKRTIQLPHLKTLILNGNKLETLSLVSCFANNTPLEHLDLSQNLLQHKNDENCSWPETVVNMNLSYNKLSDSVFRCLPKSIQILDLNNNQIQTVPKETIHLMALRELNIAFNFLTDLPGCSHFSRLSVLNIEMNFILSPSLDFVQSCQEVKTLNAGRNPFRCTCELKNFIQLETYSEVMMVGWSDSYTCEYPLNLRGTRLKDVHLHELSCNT
Kind of experiment: mRNA display affinity selection against TLR10, NGS abundance. The arrangement: Chimera protein (extracellular domain, amino acid 20-576;); Fc (chimera); purchased R&D system #6619-TR-050. As to conditions: Top100 selection hits, NGS. It counts as binding.

For the sequence RVLWKKRNYA, in the experiment with IRAK4 (IRAK4 selection pulldown (+)), the Library fraction came out at 0.0004 and the Raw reads is recorded as 46. In the experiment with IRAK4 (IRAK4 selection pulldown (-)), the Library fraction is given as 0.00019 and the Raw reads is 26.
STLWNKKIYK: the Library fraction is recorded as 0.0005 with IRAK4 (IRAK4 selection pulldown (+)) and 0.00019 with IRAK4 (IRAK4 selection pulldown (-)). Moreover, the Raw reads in the experiment with IRAK4 (IRAK4 selection pulldown (+)) amounted to 54; with IRAK4 (IRAK4 selection pulldown (-)), 26.
On to SMKRRFITWHWT, for which, in the experiment with IRAK4 (IRAK4 selection pulldown (-)), the Library fraction worked out at 8e-5 and the Raw reads was determined as 11.
In the experiment with IRAK4 (IRAK4 selection pulldown (+)), SQLYKRRIYQ registered a Library fraction of 0.0003 and a Raw reads of 37. Further, in the experiment with IRAK4 (IRAK4 selection pulldown (-)), the Library fraction worked out at 0.00027 and the Raw reads is on record as 36.
In the experiment with IRAK4 (IRAK4 selection pulldown (-)), SMHRRYITWRWT showed a Library fraction of 0.115 and a Raw reads of 15412.
In the experiment with IRAK4 (IRAK4 selection pulldown (+)), SVLWKKRVWQ yielded a Library fraction of 0.003 and a Raw reads of 318. In the experiment with IRAK4 (IRAK4 selection pulldown (-)), this sequence displayed a Library fraction of 0.00139 and a Raw reads of 186.
With SQRWRCRNYQ, in the experiment with IRAK4 (IRAK4 selection pulldown (+)), the Library fraction is reported as 0.0011 and the Raw reads came out at 116. Also, in the experiment with IRAK4 (IRAK4 selection pulldown (-)), the Library fraction turned out to be 0.002 and the Raw reads is recorded as 267.
In the experiment with IRAK4 (IRAK4 selection pulldown (+)), SQLCHRRIYK came in with a Library fraction of 0.0001 and a Raw reads of 12.
As for AMSLYWARRRPH, in the experiment with IRAK4 (IRAK4 selection pulldown (+)), the Library fraction is 0.0028 and the Raw reads is 304. Further, in the experiment with IRAK4 (IRAK4 selection pulldown (-)), the Library fraction is 0.00857 and the Raw reads turned out to be 1144.
In the experiment with IRAK4 (IRAK4 selection pulldown (+)), RILWRRRRYH had a Library fraction of 0.0009 and a Raw reads of 95. In the experiment with IRAK4 (IRAK4 selection pulldown (-)), this sequence gave a Library fraction of 0.00044 and a Raw reads of 59.
In the same order, the values of TMLWKRRIHA are 0.003, 323, 0.00136 and 181.
As for SVFWNRRIYK, in the experiment with IRAK4 (IRAK4 selection pulldown (+)), the Library fraction is 0.0006 and the Raw reads was 68. In the experiment with IRAK4 (IRAK4 selection pulldown (-)), the Library fraction is listed as 0.00016 and the Raw reads is recorded as 21.
In the experiment with IRAK4 (IRAK4 selection pulldown (-)), SMKRKFITWHWT registered a Library fraction of 7e-5 and a Raw reads of 10.
In the experiment with IRAK4 (IRAK4 selection pulldown (-)), SMQRKTIHWKWT gave a Library fraction of 0.00109 and a Raw reads of 145.
Turning to RQRWRGRKYH, in the experiment with IRAK4 (IRAK4 selection pulldown (+)), the Library fraction turned out to be 0.0001 and the Raw reads worked out at 8. In the experiment with IRAK4 (IRAK4 selection pulldown (-)), this sequence gave a Library fraction of 0.00011 and a Raw reads of 15.
In the case of RLLWKHRLYA, in the experiment with IRAK4 (IRAK4 selection pulldown (-)), the Library fraction was determined as 8e-5 and the Raw reads is listed as 11.
Turning to SLLWKRRICR, in the experiment with IRAK4 (IRAK4 selection pulldown (+)), the Library fraction came out at 0.0006 and the Raw reads is reported as 65. Also, in the experiment with IRAK4 (IRAK4 selection pulldown (-)), the Library fraction is 0.00016 and the Raw reads worked out at 21.
Consider SIMWKRRVFK, for which, in the experiment with IRAK4 (IRAK4 selection pulldown (+)), the Library fraction worked out at 0.0001 and the Raw reads came out at 9. In the experiment with IRAK4 (IRAK4 selection pulldown (-)), the Library fraction came to 8e-5 and the Raw reads is 11.
For the sequence SIFWRRRIYK, in the experiment with IRAK4 (IRAK4 selection pulldown (+)), the Library fraction amounted to 0.002 and the Raw reads was found to be 228. Moreover, in the experiment with IRAK4 (IRAK4 selection pulldown (-)), the Library fraction stood at 0.00048 and the Raw reads is on record as 64.
SQLYKRRIWM: in the experiment with IRAK4 (IRAK4 selection pulldown (+)), the Library fraction is recorded as 0.0001 and the Raw reads is listed as 9.
In the experiment with IRAK4 (IRAK4 selection pulldown (+)), SMLFKRRIYK yielded a Library fraction of 0.211 and a Raw reads of 22521. In the experiment with IRAK4 (IRAK4 selection pulldown (-)), the Library fraction is 0.165 and the Raw reads came out at 22079.
In the experiment with IRAK4 (IRAK4 selection pulldown (+)), STRWNNRIWR showed a Library fraction of 0.0001 and a Raw reads of 9.
For TLLWKRRNWA, in the experiment with IRAK4 (IRAK4 selection pulldown (+)), the Library fraction is 0.0007 and the Raw reads is 76. In the experiment with IRAK4 (IRAK4 selection pulldown (-)), the Library fraction is 0.00043 and the Raw reads turned out to be 57.
With TQRWNNRNWC, the Library fraction with IRAK4 (IRAK4 selection pulldown (+)) is 0.0003; with IRAK4 (IRAK4 selection pulldown (-)), 0.00014. For the same sequence, the figures for the Raw reads with IRAK4 (IRAK4 selection pulldown (+)) and with IRAK4 (IRAK4 selection pulldown (-)) were 29 and 19, respectively.
Consider SLLYKRRIYK, for which the Library fraction is 0.044 with IRAK4 (IRAK4 selection pulldown (+)) and 0.026 in the experiment with IRAK4 (IRAK4 selection pulldown (-)). Also, the Raw reads with IRAK4 (IRAK4 selection pulldown (+)) was found to be 4704; in the experiment with IRAK4 (IRAK4 selection pulldown (-)) it was 3431.
In the experiment with IRAK4 (IRAK4 selection pulldown (+)), CQCWNRRNWT displayed a Library fraction of 0.0003 and a Raw reads of 35. For the same sequence, in the experiment with IRAK4 (IRAK4 selection pulldown (-)), the Library fraction came to 0.00037 and the Raw reads amounted to 49.
As for SLLWRRRVYK, the values for the Library fraction with IRAK4 (IRAK4 selection pulldown (+)) and with IRAK4 (IRAK4 selection pulldown (-)) were 0.080 and 0.046, respectively. For the same sequence, the values for the Raw reads in the experiment with IRAK4 (IRAK4 selection pulldown (+)) and with IRAK4 (IRAK4 selection pulldown (-)) were 8519 and 6174, respectively.
In the experiment with IRAK4 (IRAK4 selection pulldown (+)), RTFWRRRRYH gave a Library fraction of 0.0004 and a Raw reads of 44. Further, in the experiment with IRAK4 (IRAK4 selection pulldown (-)), the Library fraction is 0.00039 and the Raw reads worked out at 52.
For the sequence RQRWRSRDYA, in the experiment with IRAK4 (IRAK4 selection pulldown (-)), the Library fraction amounted to 8e-5 and the Raw reads is 11.
As for ALLWRRRNYH, the Library fraction with IRAK4 (IRAK4 selection pulldown (+)) turned out to be 0.0006; with IRAK4 (IRAK4 selection pulldown (-)), 0.00021. The Raw reads in the experiment with IRAK4 (IRAK4 selection pulldown (+)) was 61; in the experiment with IRAK4 (IRAK4 selection pulldown (-)), 28.
Regarding TYWKACAMSHIP, in the experiment with TLR10 (TLR10 selection pulldown (+)), the Library fraction is on record as 0.00237 and the Raw reads is 231. Also, in the experiment with TLR10 (TLR10 selection pulldown (-)), the Library fraction is reported as 0.00056 and the Raw reads is given as 67.
Regarding FVLNGRYLVM, in the experiment with TLR10 (TLR10 selection pulldown (+)), the Library fraction was 0.0007 and the Raw reads came out at 68.
In the experiment with TLR10 (TLR10 selection pulldown (+)), VGYVLVKSS had a Library fraction of 0.00033 and a Raw reads of 32.
In the case of WCGATLYSSIS, in the experiment with TLR10 (TLR10 selection pulldown (+)), the Library fraction is given as 0.00024 and the Raw reads is recorded as 23.
With SMYFESLNKLAV, in the experiment with TLR10 (TLR10 selection pulldown (-)), the Library fraction came to 0.00044 and the Raw reads is 52.
On to GVRLNGVIFVSV, for which, in the experiment with TLR10 (TLR10 selection pulldown (+)), the Library fraction stood at 0.00024 and the Raw reads was 23.
In the case of SILFPHQQKLLF, in the experiment with TLR10 (TLR10 selection pulldown (+)), the Library fraction turned out to be 0.00044 and the Raw reads is recorded as 43.
In the experiment with TLR10 (TLR10 selection pulldown (-)), SICFASQRLLAF gave a Library fraction of 0.00149 and a Raw reads of 178.
In the experiment with TLR10 (TLR10 selection pulldown (-)), TLELKAIVFH had a Library fraction of 0.00044 and a Raw reads of 52.
As to STLIYKLQCILG, in the experiment with TLR10 (TLR10 selection pulldown (+)), the Library fraction amounted to 0.0008 and the Raw reads worked out at 78.
For the sequence GYAVGKLLIRV, in the experiment with TLR10 (TLR10 selection pulldown (+)), the Library fraction came out at 0.00026 and the Raw reads is reported as 25.
Take STIVFTFQCIKG: in the experiment with TLR10 (TLR10 selection pulldown (+)), the Library fraction is 0.012 and the Raw reads was 1142. In the experiment with TLR10 (TLR10 selection pulldown (-)), this sequence gave a Library fraction of 0.008 and a Raw reads of 919.
In the experiment with TLR10 (TLR10 selection pulldown (-)), TCFSHYLIM came in with a Library fraction of 0.002 and a Raw reads of 237.
In the experiment with TLR10 (TLR10 selection pulldown (-)), AVEFSNAVVM gave a Library fraction of 0.00055 and a Raw reads of 66.
Consider IGNVCIRSS, for which, in the experiment with TLR10 (TLR10 selection pulldown (-)), the Library fraction is on record as 0.0008 and the Raw reads was found to be 96.
With CLGISNRIVVV, in the experiment with TLR10 (TLR10 selection pulldown (+)), the Library fraction is on record as 0.00017 and the Raw reads is 17.
In the same order, the values of AVIVWAKQGIKG are 0.0006 and 58.
In the experiment with TLR10 (TLR10 selection pulldown (+)), SIETTNMVLL yielded a Library fraction of 0.00031 and a Raw reads of 30.
In the experiment with TLR10 (TLR10 selection pulldown (-)), SIEFRRMRAIAY returned a Library fraction of 0.00067 and a Raw reads of 80.
In the experiment with TLR10 (TLR10 selection pulldown (+)), VQLHRWGLRM yielded a Library fraction of 0.00032 and a Raw reads of 31.

The record behind these values is publication PMC10683472, “Deep Learning-Driven Library Design for the De Novo Discovery of Bioactive Thiopeptides” (ACS Central Science, 2023).
